Reference: the nanobody polyreactivity screen of Harvey et al. (2022)

Assay: yeast display, Sf9 membrane polyspecificity reagent, FACS + sequencing; frameworks hold sequencing errors
Method in brief: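 A nanobody's polyreactivity label depends on the gate it was sorted from. Yeast display cells were stained with 10% biotinylated, detergent-solubilized Sf9 membrane reagent for 1 hour at 4 °C, enriched on streptavidin microbeads and sorted by FACS. The low and high (top ~1%) gates were set on anti-HA fluorescence for expression and streptavidin fluorescence for reagent binding.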

Sequence | polyreactivity (PSR sort gate)
QDQLVESGGGLVQPGGSLRLSCAASGITFYYYTMGWYRQAPGKERELVAGITRGGRTYYADSVKGRFTISRDNAKNTVYLQMNSLKPVDSAVYYCNADPWWRFDYWGQGTQVTVSS | low polyreactivity
QDQLVESGGGLVQTGGSLRLSCASSGLIFTYYALGWYRQAPGTERELVAANRGSYSSTYYADSVKGRFTISRDNAKNTVYLHMNSLKPEDTAVYYCAAKYYWGQGTQVTVSS | high polyreactivity
QDQLVESGGLLVQAGGSLRLSCAAYGSTIGVYAMGWYRQAPRKERELVAAISSSTGSTYYADSVKGRFTISRDNAKNTVYLQMIRQKPEDTAVFYCAAAGYGKVRGDYWGQGTQVSVSS | low polyreactivity
QDQLVESGGRIVQAGGSLRLSCAASGRIFSVYARGWYRQAPGKERELVATISDGGATTYYADSVKGRFTISRDNAKNTVFFQMNSLKPEDTAVYYCAADKRGRPGLPDYDSWGQGTEVTVSS | low polyreactivity
QDQLVESGGRLVQAGGSLRLSCAASGFILSTYAMGWYRQAPGKERELVAAISSSGTSTYYADSVKGRFTISRDNAKNTVYLQMNSLKPEDTAVYYCARVSKRTWSGYYYWGQGTQVTVST | high polyreactivity
QDQLVESGLGIVQAGGSLRLSCAASGYTFSQYSMGWYRQAPGKERELVAAIDSGSKTKYADSVKGRFTISRDNAKNTVYLQMNSLKPEDSAVYYCAADDSYRSIGGDYWGQGTQVTVSS | low polyreactivity
QDQLVESGVGLVQAGGSHRLSCAASGSTFYRYAMRWYRQAHGKERELVATITTGGSSTYYADSVKGRFTISRDNAKNTVYLQMNSLKPEDTAVYYCAKVYTYSGVNLRRISTPYGYWGQGTQVTVSS | high polyreactivity
QDQLVESGVGLVQAGGSLRLSCAASGRILGRNAMGWYRQAPGKERELVAAISSGVSTNYADSVKGRFTISRANAKNTVYLQMNSLKPEDTAVYYWGQGTQVTVSS | low polyreactivity
QDQLVESRGGIVQAGGRLRLSCAASGSRFGGYGMGWYRQAPWKEREFVAVITKRGGSTYYADSVKGRFTISRDNAYNTVYLQMNSLKPEDTAVDYCNKVGYYASVLCYDYWGQGTQVTVSS | high polyreactivity
QDQLVESRGGLVQAGGSLRLICDASGFTFDSNAMVWYRQEPGKERQLVAAISARGTSTYYADSVKGRFTISRDNAKNTVYLQMNSLKPEDTAVYDCNTGESSWYLPEEDYWGQGTQVTLSS | low polyreactivity
QDQLVESRGGLVQAGGSLRLSCAASGFTFPSYAMGWYRQAPRKERELVAAITRSGGRTYYADSVKGRFTISRDNAKNTVYLQMNILKPEDTAVYYGAADRAAPRYDYWGQGTQVTVSS | high polyreactivity
QDQLVESRGGLVQAGGSLRLSCAASGGTFRVYAMGWFIQAPGKERELVAAISSGGSTNYADSVNGRFTISRDNSKNTVYLQMNSLKPEDTAVYYCAADRVGWSVYRGDYWGHGTQVTVSS | high polyreactivity
QDQLVESRGGLVQAGGSLRLTCAASGSTFVIYDMGWYSQATGKERELVAVITIIGGSTYYADSVKGRFTISRDNAKNTVYLQMNSLKPEDTAVYYCNANVIQDYPNYDYWGQGTQVSVSS | low polyreactivity
QDQLVESRGVLVQAGGSLRLSCAASGSTFEANAMGWYRQAPGKERELVAVITWTGGSTYYADSVKGRFTISRDNAKNTVYLQMNSLKPEDTAVYYCAADGVVPGRFFWPAHEYDYWGQGTQVTVSS | low polyreactivity
QDQLVESVGGLDQAGVSLRLSCAASGFIFRAYAMGWYRQAPGKERELVAAITKRSGTTYYADSVKGRFTISRDNAKNTVYLQMNSLKPEDTAVYYCAAKTLYNSGTQDRAMGYWGQGTQVTVSS | high polyreactivity
QDQLVESVGGLVQAGGSLRLSCAASGLTFEVYAMGWSRQAPGKDRELVAAISSGGRSTYYADSVKGRFTISRDNAKNTVYLQMNSRKPEDSAVYYCNAVAKLYYWRYDYWGQGTQVTVSS | low polyreactivity
QDQLVESVGGLVQAGGSLRLSCAASGSTFTSNAMGWYRQAPGKERELVAVITIGGSTNYADSVKGRFTISLDNAKNSVYLQMNSLKPEDTAVYYCAAELFPLQHFWGAYATRRYDYWGQGTQVTVSS | low polyreactivity
QDQLVESVVGLVQAGGSLRLSCAASGRIFEDYAMGWYRQAPGKERELVARICSGDSTNYADSVKGRFTISRDNAKNTVYLQMNSLKPEDTAVYYCAAEGGVQEFDFCGQGTQVTVSS | low polyreactivity
QDQLVESWVGLVQAGGSLRLSYAASGYIIKYNAMGRYRHAPRKERELVAAISSIGGRTYYADSVKARFTISRDNAKNNVYLQINILKPEDTAVYYFNAVGGRYTGWRYDYWGQGTQVTVSS | high polyreactivity
QDQLVETGGGLVQAGGSLRLSCAASGSTFAYYTMGWYRPAPGKERELVAAISSGGITYYAYSVKGRFTISRDNAKNTVYLQMNSLKPEDTAVYYCAAYRTHGPPRAIRFDYWGQGTQVTVSS | high polyreactivity
QDQLVETGGGLVQAGGSLRLSCAASGSTFWGNAMGWYRQAPGKESELVAAISTSDTSTYYADSVKGRFTISRDNAKNTVYLQMNSLKPEDTAVYYCAAEWYYGEKYDYWGQGTQVTVSS | low polyreactivity
QDQLVKSGGGLVQAGGSLRLSCAASGSTFTRNAMGWYRQAHGKERELVAAITLRGGRTYYADSVNGRFTISRDNAKNTVYLHMNSLKPEDTAVYYCAAKPYSAYSYYEQRGRKYDYWGQGTQVTVSS | low polyreactivity

Sequence | polyreactivity (PSR sort gate)
QDQLVVSGGGLVQAGGSHSLSCAASGSIFIGYSMGWYRQAPGQERELVAAITSSGRTNYADSVKGRFTISRDNAKNTVYLQMTILKPEDTAVYYCNAEGYQFFTFDYWGQGTQVTVSS | low polyreactivity
QDQRVESAGGLVQAGGSLRLSCAASGNIFDPNAMGGYRQAPGKERELVAAIRRGGSTNYADSVKGRFTISRDNAKNTVYLQMISLKPEDTAVYDCDKSRVSFTDLEGYYWGQGTLVTVSS | low polyreactivity
QEQHVESGGGLVQAGGSLRLSCAATGLIIYYYAMGWYRQAPGKEMEFVAAISTSGSRTYYADSVKGRFTISRDNAKNTVSLQMNSLKPEDTAVYYCAAEPGRSRYAWGYSYPYDYWGQGTQVTVSS | high polyreactivity
QEQLQESGGGLVQAGGSLRLSCAASGNIYDADIMGWYRQAPGKERELVTSITDGGSTNYADSVKGRFTISRDNAKNTVYLQMNSLKPEDTAVYFCAAIAYPVIPTSFDYNSDYSYWGQGTQVTVSS | low polyreactivity
QEQLQESGGGLVQAGGSLRLSCAASGSISGSSTMGWYRPAPGKERELVASIAVGANTNYADSAKGRFTISRDNAKNTVYLQMNSLKPEDTAVYYCAVDYYIYYFHYWGQGTQVTVSS | high polyreactivity
QEQLQESGGGLVQAGGSLRLSCAASGSISPYIYMGWYRQAPGKERAFVAGIGYGGTTNYADSEKGRYTISRDNAKNTEYLQMNSLKPDDTALYYCNAAYFAGPADDKFDYWGQGTQVTVSS | low polyreactivity
QEQLQESGGGLVQAGGSLRLSSAASGSISGSSTMGWYRQAQGKERELVASIAVGANTNYADSAKGRFTISRDNAKNTVYLQMNSLKPEDTAVYYCAVDYYIYYFHYWGQGTQVTVSS | high polyreactivity
QEQLQESGGGLVQAGGSLRQICAASGSNTPWSYMGRYRQAPGKEREFVASINAGTNTYYADSAKGRITISRDNAKITVYLQMNSLKPEDTAVYYCAARPDGDRLFSYWGQGTQVTVSS | low polyreactivity
QEQLQESGGGLVQEGGSLRLSCAASGNISPPADMGWYRQAPGKERELVASIGTGGTTNYADSVKGRFTISRDNAINTVYLQMNSLKPDDTAVYYCAAVRYEYNPYDYWGQGTQVTVSS | low polyreactivity
QEQLQESGGGQVQAGGSLLLSCAASGNIIRYYYMGWSRQAPGKERELVAAITYGTSTNYADSVKGRFTISRDNAKNTVYLQMNSLKPEDTAVYYCAVDVNYGDPLDNWGQGTQVTVSS | high polyreactivity
QEQLQESGGGQVQAGGSLLLSCAASGNIIRYYYMGWYRQAPGKERELVAAITYGTSTNYADSVKGRFTISRDNAKNTVYLQMNSLKPEDTAVYYCAVDVNYGDPLDNWGQGTQVTVSS | high polyreactivity
QEQLQESGSGLVQAGGSLRLSCAASGNIFQDWFMGWYRQAPGKERELVAAISPGANTNYADSVKGRFTISRDNAKNSVYLQMNSLKPEDTAVYYCAAESLFDDYYGYWGQGTQVTVSS | low polyreactivity
QEQLQESGSGLVQAGGSLRLSCAASGNIFQDWVMGWYRQAPGKERELVAAISPGAITYYADSVKGRFTISRDNAKYTVYLQTNSLKPEDTAVYYCAAYYIVEYLHGYWGQGTRVTVSS | low polyreactivity
QEQLVESGGGLDQAGGSLRLICDASGFTFLGYAMGWYRQAPGKERELVAAITSGGRTNYADSVKGRFTISRDNAKNTVYLQMNSLKPEDTAVYYCAAYRWDYYYWGQGTQVTVSS | high polyreactivity
QEQLVESGGGLVQAGGSLRLICADSGRTLVYYGMGWYRQAPGKERELVAAISGSGGRTYYADSVKGRFTISRDNAKNTVYLQMNSLKPEDTAVYYCAALCRSYPAKYASYDYCGQGTQVTVSS | high polyreactivity
QEQLVESGGGLVQAGGSLRLICPASGSIFNIYAMPWSRQAPGKERELVATITGIADSTYYADSVKGRFTISRDNAMNTVYLQMNSLKPEDTAVYYCAAEKYVAEYDYWGHGTQVTVSS | low polyreactivity
QEQLVESGGGLVQAGGSLRLSCAASGGTFGSNTRGWYRQAPGKERELVAAITSGVSTNYADSVKGRFTISRDNAKITVYLQMNRLKPEDTAVYYCAKELWSEEYETIITYYGFDYLGQGTQVTVSS | low polyreactivity
QEQLVESGGGLVQAGGSLRLSCAASGSILRYYAMRWYRQPPGKEREFVAAISWSGTSTYYADSVKGRFTISRDIAKNTVYLQLNSLKPEDTSVYYCAARTYYVPYYYCGQGTQVTVSS | high polyreactivity
QEQLVESGGGLVQAGGSLRLSCAASGSTFYANAMGWYRQAPGQERELVAAISWDGGNTYYADSVKGRFTISRDNAKNNVYLQMNSLKPEDTAVYYCARDYYGTVYYYGYDYWGQGTQVTVSS | low polyreactivity
QEQLVESGGGLVQAGGSLRLSCDASGRTLSRYTMGWYRQPPGQETELVAAISTSGSTYYADSVKGRFTISRDNAKNPVYLQMNSVKPDDTGVYYCNAVGLYLHYATGYDYWGQGRQVTVSS | high polyreactivity
QFHLVESGGGLVQAGGSLRLSCAASGSIFYPYDMGWYRQAPGKERELVATINWSSGRTNYADSVKGRFTISRDYAKNTVYLQMNSLKPEDSAVYYCNARFYYTLYYDYWGQGTQVTVSS | high polyreactivity
